Experimental findings from article PMC2650427 (Bioconjugate chemistry, 2008) are described below.

A short description of this data set: Determination of q by luminescence lifetime measurements. Format: physicochemical. Conditions: emission 544 nm, excitation 229 nm, 25 scans averaged, monoexponential fit.

With Tb(III)-DTPA-SS-Arg8 [compound 13], the “kD2O (luminescence decay rate in D2O)” value stood at 0.390 ms^−1 and the “kH2O (luminescence decay rate in H2O)” value is 0.671 ms^−1.
Taken in the same sequence, the figures for Tb(III)-DOTA-SS-Arg8 [compound 12] were 0.397 ms^−1 and 0.644 ms^−1.
The corresponding values for Tb(III)-DOTA-Arg8 [compound 10] are 0.315 ms^−1 and 0.566 ms^−1.
With Tb(III)-DTPA-Arg8 [compound 11], the “kD2O (luminescence decay rate in D2O)” value stood at 0.331 ms^−1 and the “kH2O (luminescence decay rate in H2O)” value was determined as 0.635 ms^−1.
